In the supplement of paper PMC10724198:
± gives the standard deviation of the averaged measurements.

Test system: Saccharomyces cerevisiae
Assay: protein stability index of tFT-peptide fusion (C-terminal peptide) (PSI (0-1 scale)); higher = more stable (slower turnover)
Conditions: genetic background: wild type; temperature: 30 C
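Note: PSI is a weighted mean of sequencing reads over stability bins, variants kept only with over 10 reads, mCherry proximal and sfGFP distal, peptide attached via GGGS linker.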

STCSTSQPPSPS
protein stability index: 0.663 ± 0.069

STFRICTGVPRP
protein stability index: 0.729 ± 0.0093

STGLRISPPAYM
protein stability index: 0.677 ± 0.0069

STIIYFLTYSDK
protein stability index: 0.634 ± 0.063

STKGAIKVEECI
protein stability index: 0.636 ± 0.023

STLCVRLITSAR
protein stability index: 0.649 ± 0.077

STNNSGRPMSFL
protein stability index: 0.664 ± 0.045

STPPAPPPLLPP
protein stability index: 0.736 ± 0.031

STSYLKLKYSIY
protein stability index: 0.498 ± 0.038

STVESAWPAGPA
protein stability index: 0.712 ± 0.0016

STVSLASPARSP
protein stability index: 0.683 ± 0.048

SVGSLLAFLHRR
protein stability index: 0.68336 ± 0.00055

SVIGLNLVGMGW
protein stability index: 0.641 ± 0.046

SVIYQMMGRIVR
protein stability index: 0.723 ± 0.07

SVLRGLCFDGYR
protein stability index: 0.7252 ± 0.0064

SVLSPTLESLIF
protein stability index: 0.681 ± 0.032

SVNRRTVYRKNK
protein stability index: 0.764 ± 0.17

SVPLTPKTPPPP
protein stability index: 0.701 ± 0.049

SVPSRSSAALCS
protein stability index: 0.714 ± 0.067

SVPYALPTTPPR
protein stability index: 0.676 ± 0.045

SVRLVGHGARDR
protein stability index: 0.699 ± 0.18

SVSPRPSPPAVP
protein stability index: 0.708 ± 0.13

SVVLIQVVSKPT
protein stability index: 0.58 ± 0.015

SVVVIGSSYASG
protein stability index: 0.5899 ± 0.0023

SVVVVAKAKAGR
protein stability index: 0.635 ± 0.047

SVWFSFVKVRGG
protein stability index: 0.612 ± 0.0037

SVYFSLITRPYY
protein stability index: 0.667 ± 0.012

SWCQFAVGGIIH
protein stability index: 0.664 ± 0.013

SWECRGMGVCGG
protein stability index: 0.721 ± 0.02

SWFYTQSEKTLS
protein stability index: 0.7798 ± 0.005

SWGHTGTLRNDI
protein stability index: 0.747 ± 0.035

SWGLSVSSCFVW
protein stability index: 0.578 ± 0.0066

SWICSTRSYQRE
protein stability index: 0.702 ± 0.044

SWMDRGGSYSGI
protein stability index: 0.684 ± 0.12

SWTCSPLKSFHS
protein stability index: 0.734 ± 0.049

SWVELCSQEVVI
protein stability index: 0.603 ± 0.01

SWVVSLGFAIGL
protein stability index: 0.693 ± 0.055

SWYAGGRRWIVV
protein stability index: 0.608 ± 0.022

SYGSLFCSHLDG
protein stability index: 0.6828 ± 0.0014

SYGWSQGPLSCW
protein stability index: 0.767 ± 0.01

SYTIPPSTYLPS
protein stability index: 0.704 ± 0.043

SYVYETERNEST
protein stability index: 0.715 ± 0.019

TACPPSTPSTAF
protein stability index: 0.689 ± 0.033

TAGPHPLSLPPP
protein stability index: 0.709 ± 0.033

TALFRLRRPRLR
protein stability index: 0.801 ± 0.021

TAPRERFGKDPR
protein stability index: 0.649 ± 0.056

TARAGRTASAPR
protein stability index: 0.7084 ± 0.0025

TARVPARLTHAS
protein stability index: 0.683 ± 0.029

TAYRGCSDRNAG
protein stability index: 0.603 ± 0.042

TCRGRLCVCLFC
protein stability index: 0.505 ± 0.015

TDPLGDDSSESE
protein stability index: 0.672 ± 0.048

TEHRVGEKEPWH
protein stability index: 0.681 ± 0.018

TEKQSGRINTAI
protein stability index: 0.653 ± 0.034

TERPMAVESRAW
protein stability index: 0.686 ± 0.012

TEVSDVSWSEVW
protein stability index: 0.696 ± 0.025

TFDNEYKRSRKV
protein stability index: 0.678 ± 0.033

TFFGEDVGVVVD
protein stability index: 0.69681 ± 0.00058

TFHTSSSPAHLP
protein stability index: 0.663 ± 0.038

TFSVNLGAASAK
protein stability index: 0.662 ± 0.042

TGGKGNKNKIKE
protein stability index: 0.692 ± 0.031

TGLMAPEGGGQA
protein stability index: 0.719 ± 0.076

TGRGVFCMSIHM
protein stability index: 0.643 ± 0.045

TGRQQTCRIIIE
protein stability index: 0.6873 ± 0.00092

TGRRLVLGDRCM
protein stability index: 0.72 ± 0.011

TGSRISHSPLYP
protein stability index: 0.671 ± 0.02

TGTPGAVRRGGA
protein stability index: 0.727 ± 0.1

TGVGRLGYRFVV
protein stability index: 0.588 ± 0.0064

TGWSRTTVGFAT
protein stability index: 0.711 ± 0.046

THMSPLPTSERW
protein stability index: 0.678 ± 0.085

THPPPPPPACSV
protein stability index: 0.632 ± 0.037

THRNEKQGTVTY
protein stability index: 0.651 ± 0.016

THSLSCPPRNPP
protein stability index: 0.647 ± 0.07

THVDLGVLVSPE
protein stability index: 0.6698 ± 0.0017

THVKVNNQARGR
protein stability index: 0.722 ± 0.014

TIATASWILRRL
protein stability index: 0.624 ± 0.0045

TIRHKALTRKSR
protein stability index: 0.713 ± 0.012

TKIENYKRKRAK
protein stability index: 0.708 ± 0.1

TKIKKKTQEGSR
protein stability index: 0.698 ± 0.029

TKKRKRKKKGNK
protein stability index: 0.715 ± 0.05

TKQIKKNKHKRA
protein stability index: 0.727 ± 0.12

TLAPSKHGSNRT
protein stability index: 0.666 ± 0.049

TLCCLFPIPSSS
protein stability index: 0.699 ± 0.08

TLCFSFPVPGFL
protein stability index: 0.723 ± 0.1

TLCTSPWGVVAV
protein stability index: 0.511 ± 0.024

TLQLFPRIPSFQ
protein stability index: 0.707 ± 0.0019

TLRLPLHLLRPT
protein stability index: 0.642 ± 0.021

TLRPPPPPAFPP
protein stability index: 0.719 ± 0.084

TLSFPFRPLRLA
protein stability index: 0.48 ± 0.033

TLSYSPPCSPRH
protein stability index: 0.742 ± 0.03

TLVPAYRCEWCA
protein stability index: 0.736 ± 0.046

TLYEVHQSENSR
protein stability index: 0.666 ± 0.016

TMLPQGFSGNLH
protein stability index: 0.6891 ± 0.0025

TMQDSNKSQGCA
protein stability index: 0.706 ± 0.019

TMSPPSTSGGMG
protein stability index: 0.6855 ± 0.0042

TNMTRWRIRVRD
protein stability index: 0.676 ± 0.053

TNNTKRDKKRIQ
protein stability index: 0.703 ± 0.16

TPHNQPKPTPPC
protein stability index: 0.698 ± 0.032

TPHRVGRAAATR
protein stability index: 0.675 ± 0.02

TPKAMHPNPNTL
protein stability index: 0.6458 ± 0.0024

TPLLRRHSFSRN
protein stability index: 0.779 ± 0.021

TPLPLPPPRPSP
protein stability index: 0.685 ± 0.0031
